In article doi:10.1101/2021.04.02.438172:

Experiments:
[1] = biological target: Sandercyanin His-108-Ala (Stizostedion vitreum (formerly Sander vitreus), walleye)
[2] = biological target: Sandercyanin Phe-106-Ala (Stizostedion vitreum (formerly Sander vitreus), walleye)
[3] = biological target: Sandercyanin Tyr-142-Ala (Y142A) (Stizostedion vitreum (formerly Sander vitreus), walleye)
[4] = biological target: wild-type Sandercyanin (Stizostedion vitreum (formerly Sander vitreus), walleye); assay: SEC

## Sandercyanin His-108-Ala (natural protein)
[1]
  stoichiometry N: 4

## Sandercyanin Phe-106-Ala (natural protein)
[2]
  stoichiometry N: 4

## Sandercyanin Tyr-142-Ala (Y142A) (natural protein)
[3]
  stoichiometry N: 4

## wild-type Sandercyanin (natural protein)
[4]
  stoichiometry N: 4
